Experimental findings from patent US20170198056A1 (MEDICINAL CHEMISTRY PHARMACEUTICALS, published 2017) are described below.

The target of this assay is T1, MUC1 expressed on breast cancer cells (OCUB-M, MCF-7) (human, UniProt P15941 24-1255, native O-glycosylation of the cancer cells, not defined).
T1 construct: whole, on cells; OCUB-M cells were fixed and treated with Triton X-100; MCF-7 cells were fixed with formaldehyde; also called MUC1 expressing cells
The assay is described as follows: immunofluorescence staining of fixed OCUB-M breast cancer cells, 10 ug/mL antibody.

T1 sequence (P15941 24-1255): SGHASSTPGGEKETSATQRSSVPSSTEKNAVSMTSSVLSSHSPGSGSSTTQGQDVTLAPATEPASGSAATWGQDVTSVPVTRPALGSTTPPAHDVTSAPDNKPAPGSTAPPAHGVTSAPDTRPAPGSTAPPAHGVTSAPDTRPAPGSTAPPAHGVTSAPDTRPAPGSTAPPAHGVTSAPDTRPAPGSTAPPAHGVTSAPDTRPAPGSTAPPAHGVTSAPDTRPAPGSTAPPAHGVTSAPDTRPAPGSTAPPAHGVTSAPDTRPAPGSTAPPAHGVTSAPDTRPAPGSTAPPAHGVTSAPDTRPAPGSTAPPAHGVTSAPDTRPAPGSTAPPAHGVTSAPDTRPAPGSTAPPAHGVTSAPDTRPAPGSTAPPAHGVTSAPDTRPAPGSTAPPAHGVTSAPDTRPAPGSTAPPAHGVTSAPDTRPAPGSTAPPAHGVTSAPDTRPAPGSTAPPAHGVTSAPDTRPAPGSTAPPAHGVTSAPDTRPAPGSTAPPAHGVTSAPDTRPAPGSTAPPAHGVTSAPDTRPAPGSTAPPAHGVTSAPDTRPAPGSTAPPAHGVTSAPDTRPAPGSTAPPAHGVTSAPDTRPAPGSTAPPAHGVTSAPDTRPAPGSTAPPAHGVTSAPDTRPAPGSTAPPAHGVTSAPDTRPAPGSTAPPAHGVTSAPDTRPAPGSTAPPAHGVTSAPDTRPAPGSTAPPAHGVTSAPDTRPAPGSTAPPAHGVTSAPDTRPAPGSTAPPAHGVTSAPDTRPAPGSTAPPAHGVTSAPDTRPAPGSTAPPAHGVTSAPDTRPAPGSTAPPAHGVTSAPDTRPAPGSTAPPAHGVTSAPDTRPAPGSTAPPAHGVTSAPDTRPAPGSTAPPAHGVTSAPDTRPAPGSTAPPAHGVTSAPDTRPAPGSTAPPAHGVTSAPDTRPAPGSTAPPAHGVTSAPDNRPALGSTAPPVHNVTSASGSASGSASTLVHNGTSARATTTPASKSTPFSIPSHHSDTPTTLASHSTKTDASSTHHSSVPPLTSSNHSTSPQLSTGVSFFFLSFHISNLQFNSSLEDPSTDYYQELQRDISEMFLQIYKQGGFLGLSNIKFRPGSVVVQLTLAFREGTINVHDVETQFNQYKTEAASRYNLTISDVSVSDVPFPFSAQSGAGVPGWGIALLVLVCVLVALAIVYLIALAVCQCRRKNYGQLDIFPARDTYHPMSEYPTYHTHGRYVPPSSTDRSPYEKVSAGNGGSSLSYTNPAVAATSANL

B1: Monoclonal antibody SN-102 (antibody, V domains shown)
VH: EVQLQQSGAELVKPGASVKLSCTASGFNIKDYYMHWVKQRTEQGLEWIGRIDPEDGETKYAPKFQGKAIITADTSSNTAYLQLSSLTSEDTAVYYCVHFYYGYDVGRGYWGQGTTLTVSS
VL: DIVMSQSPSSLAVSVGEKVTMSCKSSQSLLYSSNQKNYLAWYQQKPGQSPKLLIYWASTRESGVPDRFTGSGSGTDFTLTISSVKAEDLAVYYCQQYYSYTFGGGTKLEIK
notes: Mouse monoclonal antibody from a hybridoma; it was purified on Protein G and detected with anti-mouse IgG; The array assay used culture supernatant diluted 10-fold; also called antibody of hybridoma strain 3C10-E11
As to B1, the binding result was “binds”.

B2: Monoclonal antibody SN-101 (antibody, V domains shown)
VH: EVNLEESGGGLVQPGGSMKLSCVASGFTFSNYWMNWVRQSPEKGLEWVAQIRLKSDNYATHYAESVKGRFTISRDDSKSSVYLQMNNLRAEDTGIYYCTGGVFDYWGQGTTLTVSS
VL: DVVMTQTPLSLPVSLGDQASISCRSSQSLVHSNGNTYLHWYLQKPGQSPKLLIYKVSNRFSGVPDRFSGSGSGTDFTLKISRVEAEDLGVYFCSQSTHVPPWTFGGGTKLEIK
notes: Mouse monoclonal antibody from a hybridoma; it was purified on Protein G and detected with anti-mouse IgG; The array assay used culture supernatant diluted 10-fold; also called antibody of hybridoma strain 3A9-4B1 (NITE BP-01845)
Turning to B2, the binding result was “binds”.
